In patent publication US20130158238A1 (THERACLONE SCIENCES, published 2013):
Several values for one entry are separate records, joined by “and”; a condition that tells them apart may be missing. Equal values may be shown once.

Key:
[1] = target: M2 protein on influenza A/Puerto Rico/8/34 (H1N1) virus particles (Influenza A virus A/Puerto Rico/8/34 …, UniProt P06821 1-97)
M16 = assay: ELISA, peptide 2 µg/mL, mAb 5 µg/mL
CM15 = assay: ELISA, peptide 2 µg/mL, mAb 5 µg/mL
M15 = assay: ELISA, peptide 2 µg/mL, mAb 5 µg/mL
NM17 = assay: ELISA, peptide 2 µg/mL, mAb 5 µg/mL
NM13 = assay: ELISA, peptide 2 µg/mL, mAb 5 µg/mL
CM14 = assay: ELISA, peptide 2 µg/mL, mAb 5 µg/mL
NM12 = assay: ELISA, peptide 2 µg/mL, mAb 5 µg/mL
NM15 = assay: ELISA, peptide 2 µg/mL, mAb 5 µg/mL
NM7 = assay: ELISA, peptide 2 µg/mL, mAb 5 µg/mL
M12 = assay: ELISA, peptide 2 µg/mL, mAb 5 µg/mL
[2] = target: M2e peptide … (23mer synthetic peptide of M2 derived from A/Fort Worth/1/50) (Influenza A virus A/Fort Worth/1/50 (H1N1)); assay: ELISA, peptide 2 µg/mL, mAb 5 µg/mL
NM8 = assay: ELISA, peptide 2 µg/mL, mAb 5 µg/mL
CM16 = assay: ELISA, peptide 2 µg/mL, mAb 5 µg/mL
CM13 = assay: ELISA, peptide 2 µg/mL, mAb 5 µg/mL
CM12 = assay: ELISA, peptide 2 µg/mL, mAb 5 µg/mL
CM17 = assay: ELISA, peptide 2 µg/mL, mAb 5 µg/mL
NM14 = assay: ELISA, peptide 2 µg/mL, mAb 5 µg/mL
[3] = target: M2 protein of A/Hong Kong/483/1997, on cells (Influenza A virus A/Hong Kong/483/97 (H5N1)); assay: FACS, supernatant on CHO cells stably expressing M2 of A/Hong Kong/483/97

B1: 8i10 (antibody, V domains shown)
VH: QVQLQESGPGLVKPSETLSLTCTVSGSSISNYYWSWIRQSPGKGLEWIGFIYYGGNTKYNPSLKSRVTISQDTSKSQVSLTMSSVTAAESAVYFCARASCSGGYCILDYWGQGTLVTVS
VL: DIQMTQSPSSLSASVGDRVTITCRASQNIYKYLNWYQQRPGKAPKGLISAASGLQSGVPSRFSGSGSGTDFTLTITSLQPEDFATYYCQQSYSPPLTFGGGTRVEIK
EC50 (read off the curve) [1]: ~0.04 µg/mL | binding activity (ELISA A450) (M16): 0.09 | binding activity (ELISA A450) (CM15): 0.12 | binding activity (ELISA A450) (M15): 0.09 | binding activity (ELISA A450) (NM17): 0.26 | binding activity (ELISA A450) (NM13): 0.11 | binding activity (ELISA A450) (CM14): 0.14 | binding activity (ELISA A450) (NM12): 0.1 | binding activity (ELISA A450) (NM15): 0.12 | binding activity (ELISA A450) (NM7): 0.1 | binding activity (ELISA A450) (M12): 0.09 | binding activity (ELISA A450) [2]: 0.11 | binding activity (ELISA A450) (NM8): 0.1 | binding activity (ELISA A450) (CM16): 0.13 | binding activity (ELISA A450) (CM13): 0.14 | binding activity (ELISA A450) (CM12): 0.14 | binding activity (ELISA A450) (CM17): 0.11 | binding activity (ELISA A450) (NM14): 0.11 | FACS M2-HK MFI [3]: 754 MFI and 1080 MFI

B2: 23K12 (antibody, V domains shown)
VH: EVQLVESGGGLVQPGGSLRISCAASGFTVSSNYMSWVRQAPGKGLEWVSVIYSGGSTYYADSVKGRFSFSRDNSKNTVFLQMNSLRAEDTAVYYCARCLSRMRGYGLDVWGQGTTVTVS
VL: DIQMTQSPSSLSASVGDRVTITCRTSQSISSYLNWYQQKPGKAPKLLIYAASSLQSGVPSRFSGSGSGTDFTLTISGLQPEDFATYYCQQSYSMPAFGQGTKLEIK
EC50 (read off the curve) [1]: ~0.06 µg/mL | binding activity (ELISA A450) (CM15): 0.34 | binding activity (ELISA A450) (NM13): 0.25 | binding activity (ELISA A450) (CM14): 0.36 | binding activity (ELISA A450) (NM12): 0.24 | binding activity (ELISA A450) (NM7): 0.2 | binding activity (ELISA A450) (M12): 0.2 | binding activity (ELISA A450) (NM8): 0.2 | binding activity (ELISA A450) (CM16): 0.35 | binding activity (ELISA A450) (CM13): 0.34 | binding activity (ELISA A450) (CM12): 0.39 | binding activity (ELISA A450) (CM17): 0.34 | binding activity (ELISA A450) (NM14): 0.24
